For one molecule, Kd results are on record in paper PMC9021188 (2022).

Some targets named below: GX-pangolin RBD protein (pangolin-CoV-GX); SARS-CoV RBD protein (SARS-CoV, UniProt P59594); GD-pangolin RBD protein (pangolin-CoV-GD).
Common to all, as to assay: BLI
For orientation: BLI is a label-free optical method that tracks binding on a fibre tip over time.

In test [1] the target is RaTG13 RBD protein (RaTG13).
For test [2], the target named is RaTG13 RBD protein (RaTG13). This is another data set of the same source.

Where two headings read alike, the source gives them in different places.

B1: GW01 (antibody, V domains shown)
VH: EVQLVESGGGVVQPGGSLRLSCAASGFRFDDHAMHWVRQAPGKGLEWVSVISGDGGSTYYADSVKGRFSISRDDSKNSLYLQMNSLRTEDTALYYCAKDRSYGPPDVFNYEYGMDVWGQGTTVTVSS
VL: not shown
Broadly, the Kd is a measure of binding affinity in units of concentration. Read a low Kd as a tighter complex. Turning to B1, the Kd was found to be 7.42 nM with GX-pangolin RBD protein; 1.49 nM with SARS-CoV RBD protein; 14.4 nM with RaTG13 RBD protein [1]; 4.05 nM in the test with GD-pangolin RBD protein; 14.2 nM in the test with RaTG13 RBD protein [2].
